Target: 8G-AIDA receptor: eight tandemly repeated protein G C2 domains linked with AIDA, on the surface of Escherichia coli BL21 cells (BL21/8G) (not stated (streptococcal))
Experiment: ELISA; bacteria coated on poly-L-lysine-treated 96-well plates (10^7 cfu/well added; about 6.7 × 10^6 cfu/well coated), blocked with 5% skim milk; HRP-conjugated goat anti-mouse IgG Fc (1 μg/mL), room temperature, 1 h; ABTS, absorbance at 405 nm

- fold of antibody trapped against BL21/1G cells: 18.9 fold
Substance: HRP-conjugated goat anti-mouse IgG Fc (antibody)
